Measured values taken from the supplement of paper PMC10126150.
± gives the standard deviation of the averaged measurements.

Test system: ATP
Assay: switch fluorescence ratio, 500 uM ATP over buffer (Cy3 cluster intensity, sum of 5 cycles each) (fold (ratio)); higher = stronger signal-on switching upon ATP binding; sequences stand for … in TCGTCGGCAGCGTCAGATGTGTATAAGAGACAGTTTTTTTTTTTTTTTTTTTTTTTTT…TC
Conditions: aptamer strand: ATP DNA aptamer (quencher-CACCTGGGGGAGTATTGCGGAGGAAGG + anchor), 100 nM annealed; ATP concentration: 500 uM
Summary of the method: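 Values give the fluorescence ratio for each switch-domain sequence, averaged from per-cluster ratios of summed target-cycle to summed buffer-cycle Cy3 intensity. The Cy3-labelled switching-strand clusters sat on a modified Illumina MiSeq flow-cell, were annealed to 100 nM quencher-labelled ATP aptamer, and were imaged in selection buffer, then after 15 min with 500 uM ATP at 22 °C. Five cycles ran with NaOH stripping and re-annealing between them, and clusters outside 100-1000 RFU were excluded.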
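Further: ATP exposure 15 min at 22 °C before imaging.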

Row | Sequence | switch fluorescence ratio
1 | ACAATATGGG | 1.01 ± 0.079
2 | ACAATGGCAC | 1.06 ± 0.029
3 | ACAATTGACT | 1.099 ± 0.0039
4 | ACAATTGGAG | 0.9969 ± 0.0044
5 | ACACAATAGG | 1.04 ± 0.025
6 | ACACAGTAGT | 1.03 ± 0.011
7 | ACACCGTCTA | 1.11 ± 0.023
8 | ACACCTTTTT | 1.04 ± 0.032
9 | ACACGCGCCT | 1.08 ± 0.011
10 | ACACGGGAAG | 1.02 ± 0.011
11 | ACACGGGATG | 1.06 ± 0.077
12 | ACACGGGGTG | 1.018 ± 0.0018
13 | ACACGTAACT | 1.359 ± 0.0099
14 | ACACGTTGGC | 1.05 ± 0.06
15 | ACACTAGGTG | 1.42 ± 0.023
16 | ACACTGCTTA | 1.02 ± 0.044
17 | ACACTTTACT | 1.32 ± 0.014
18 | ACAGAAAGAC | 1.15 ± 0.27
19 | ACAGAAGGGA | 1.03 ± 0.068
20 | ACAGATAAAG | 0.97 ± 0.045
21 | ACAGCAGTGT | 1.03 ± 0.035
22 | ACAGCATGGA | 1.04 ± 0.048
23 | ACAGCATTTT | 1.03 ± 0.0072

Row | Sequence | switch fluorescence ratio
24 | ACAGCCTGCC | 1.3 ± 0.07
25 | ACAGCGGGTG | 1.087 ± 0.01
26 | ACAGCTTCTA | 1.03 ± 0.021
27 | ACAGCTTTTT | 1.01 ± 0.013
28 | ACAGGGATCA | 0.981 ± 0.052
29 | ACAGGGGGCC | 1.08 ± 0.12
30 | ACAGGGGGGA | 1.05 ± 0.046
31 | ACAGGGGGTA | 1.02 ± 0.024
32 | ACAGGGTTGG | 1.02 ± 0.03
33 | ACAGGGTTGT | 0.979 ± 0.013
34 | ACAGTAAGAG | 1.03 ± 0.049
35 | ACAGTAAGTT | 1.07 ± 0.016
36 | ACAGTCGGGC | 1.001 ± 0.0073
37 | ACAGTGTCTT | 1.01 ± 0.03
38 | ACAGTTATTG | 1.016 ± 0.0077
39 | ACAGTTCGGG | 0.9653 ± 0.0051
40 | ACAGTTGGCC | 1.02 ± 0.021
41 | ACAGTTGGCT | 1.0179 ± 0.00096
42 | ACAGTTGTAT | 1.015 ± 0.01
43 | ACATAATTGA | 1.03 ± 0.017
44 | ACATACGAAC | 1.38 ± 0.098
45 | ACATAGCTGG | 1.01 ± 0.029
46 | ACATAGCTTT | 1.03 ± 0.036

Row | Sequence | switch fluorescence ratio
47 | ACATAGGAAC | 1.024 ± 0.004
48 | ACATATCTTT | 1.025 ± 0.0012
49 | ACATATGGGC | 0.974 ± 0.037
50 | ACATATTTTG | 1.01 ± 0.033
51 | ACATCAATTC | 1.1 ± 0.014
52 | ACATCGGGCT | 1.02 ± 0.027
53 | ACATCGTCAT | 1.01 ± 0.02
54 | ACATCGTTCT | 0.977 ± 0.018
55 | ACATCTGACA | 1.06 ± 0.019
56 | ACATCTTTTA | 1.03 ± 0.038
57 | ACATGAGCGT | 0.996 ± 0.016
58 | ACATGAGGTG | 1.18 ± 0.064
59 | ACATGAGTCT | 1.02 ± 0.02
60 | ACATGGAGAG | 0.985 ± 0.052
61 | ACATGGATAA | 1.012 ± 0.0044
62 | ACATGGGCT | 1.003 ± 0.0088
63 | ACATGGGGGA | 1.02 ± 0.0082
64 | ACATGGGTT | 1.04 ± 0.05
65 | ACATGTCTGA | 0.9991 ± 0.0024
66 | ACATGTGGAT | 0.996 ± 0.05
67 | ACATGTTATT | 1.01 ± 0.035
68 | ACATTACACA | 1.4 ± 0.25
69 | ACATTAGTGG | 1.01 ± 0.01

Row | Sequence | switch fluorescence ratio
70 | ACATTCTATT | 1.01 ± 0.021
71 | ACATTTTGGT | 0.995 ± 0.03
72 | ACCAATTTTG | 1.01 ± 0.024
73 | ACCACAATGT | 1.08 ± 0.055
74 | ACCACCGTTG | 1.113 ± 0.0039
75 | ACCACGGGGT | 1.02 ± 0.038
76 | ACCAGATGCG | 1.01 ± 0.03
77 | ACCAGCCTGG | 1.01 ± 0.025
78 | ACCAGGGTCA | 1.05 ± 0.034
79 | ACCAGTCTGG | 1.01 ± 0.017
80 | ACCAGTGTCA | 1.02 ± 0.021
81 | ACCATGGCTT | 0.976 ± 0.013
82 | ACCATGGGAA | 1.04 ± 0.022
83 | ACCATGTTTG | 1.012 ± 0.0072
84 | ACCCAGGGCG | 1.44 ± 0.13
85 | ACCCATCCAT | 1.02 ± 0.017
86 | ACCCGCTTTT | 1.38 ± 0.31
87 | ACCCGGCTCC | 1.23 ± 0.045
88 | ACCCGTTGTG | 1.05 ± 0.03
89 | ACCCTCGCAG | 1.748 ± 0.0058
90 | ACCCTGGGGT | 2.14 ± 1.6
91 | ACCGATACCC | 1.31 ± 0.022
92 | ACCGCGGGGG | 1.03 ± 0.034

Row | Sequence | switch fluorescence ratio
93 | ACCGCGGTGT | 1.007 ± 0.0052
94 | ACCGCGTATG | 1.03 ± 0.038
95 | ACCGCTATGT | 1.57 ± 0.019
96 | ACCGGAGTCA | 1.22 ± 0.058
97 | ACCGGGAGAT | 0.994 ± 0.042
98 | ACCGGGAGGT | 1.01 ± 0.049
99 | ACCGGGGCAA | 1.13 ± 0.16
100 | ACCGGGTTGC | 1.064 ± 0.008
101 | ACCGGTACTC | 1.31 ± 0.047
102 | ACCGGTGTAC | 1.77 ± 0.12
103 | ACCGGTTATT | 1 ± 0.013
104 | ACCGGTTGCC | 0.974 ± 0.058
105 | ACCGGTTGGT | 0.976 ± 0.01
106 | ACCGGTTTCT | 0.997 ± 0.037
107 | ACCGTAGGTG | 1.03 ± 0.034
108 | ACCGTGAAGG | 0.99924 ± 8.2e-05
109 | ACCGTGTCAA | 1.01 ± 0.032
110 | ACCGTGTCGT | 0.989 ± 0.095
111 | ACCGTTAGGT | 0.951 ± 0.037
112 | ACCTACGCGG | 1.97 ± 0.22
113 | ACCTAGGACT | 1.024 ± 0.0027
114 | ACCTAGTAAA | 0.987 ± 0.025
115 | ACCTCACTTT | 1.303 ± 0.005

Row | Sequence | switch fluorescence ratio
116 | ACCTCATTAA | 1.03 ± 0.015
117 | ACCTCCCGGG | 1.13 ± 0.17
118 | ACCTCGGTCG | 0.983 ± 0.019
119 | ACCTGATTAA | 1.01 ± 0.018
120 | ACCTGGGCAG | 1.07 ± 0.015
121 | ACCTTACTTA | 1.29 ± 0.029
122 | ACCTTCCGGG | 2.37 ± 0.084
123 | ACCTTGATTG | 1.01 ± 0.018
124 | ACCTTGCACA | 1.252 ± 0.012
125 | ACCTTTTTAG | 1.02 ± 0.015
126 | ACCTTTTTAT | 1.02 ± 0.038
127 | ACGAAAAAAG | 1.02 ± 0.012
128 | ACGAAGGGCG | 1.019 ± 0.01
129 | ACGAAGGGTC | 0.9941 ± 0.0098
130 | ACGAATAAGG | 1.03 ± 0.021
131 | ACGACAGATG | 0.961 ± 0.046
132 | ACGACCATCG | 1.01 ± 0.02
133 | ACGACGAAAC | 3.35 ± 1
134 | ACGACGAAGG | 1.06 ± 0.083
135 | ACGACTTAGG | 1.07 ± 0.017
136 | ACGACTTTAG | 1.022 ± 0.0014
137 | ACGAGAACGA | 1.05 ± 0.021
138 | ACGAGATGGT | 1.023 ± 0.0069

Row | Sequence | switch fluorescence ratio
139 | ACGAGCGCGT | 1.02 ± 0.027
140 | ACGAGGCCAG | 1.23 ± 0.032
141 | ACGAGGCGTA | 1.04 ± 0.0046
142 | ACGAGGCTTC | 1.294 ± 0.0082
143 | ACGAGGGAGC | 1.05 ± 0.017
144 | ACGAGGTTGG | 1.04 ± 0.084
145 | ACGAGTGAAA | 1.02 ± 0.045
146 | ACGAGTGGCG | 0.933 ± 0.021
147 | ACGAGTTCCC | 1.01 ± 0.043
148 | ACGAGTTTGG | 0.963 ± 0.036
149 | ACGAGTTTTT | 1.01 ± 0.021
150 | ACGATAGGGG | 1.03 ± 0.031
151 | ACGATAGGTA | 1.06 ± 0.026
152 | ACGATGAAGG | 1.01 ± 0.021
153 | ACGATGATGT | 1.0279 ± 0.00059
154 | ACGATGCGGG | 1.09 ± 0.025
155 | ACGATGGCTG | 1.04 ± 0.015
156 | ACGATTAGTT | 0.971 ± 0.032
157 | ACGATTGGGT | 0.992 ± 0.013
